Patent publication US20090196913A1, “Anti-Alpha-V Immunoliposome Composition, Methods, and Uses” (priority 2007, published 2009)

Target: murine αVβ3/5 integrin on the murine melanoma cell line B16-F10 (murine) (UniProt P43406)
Assay: cell-based or functional assay
Design: IC50 of doxorubicin, cell viability, murine melanoma B16-F10, integrin targeted liposome-entrapped dox 90:1: unit not given beside the values

Sequence of murine αVβ3/5 integrin on the murine melanoma cell line B16-F10 (murine) (P43406 31-1044): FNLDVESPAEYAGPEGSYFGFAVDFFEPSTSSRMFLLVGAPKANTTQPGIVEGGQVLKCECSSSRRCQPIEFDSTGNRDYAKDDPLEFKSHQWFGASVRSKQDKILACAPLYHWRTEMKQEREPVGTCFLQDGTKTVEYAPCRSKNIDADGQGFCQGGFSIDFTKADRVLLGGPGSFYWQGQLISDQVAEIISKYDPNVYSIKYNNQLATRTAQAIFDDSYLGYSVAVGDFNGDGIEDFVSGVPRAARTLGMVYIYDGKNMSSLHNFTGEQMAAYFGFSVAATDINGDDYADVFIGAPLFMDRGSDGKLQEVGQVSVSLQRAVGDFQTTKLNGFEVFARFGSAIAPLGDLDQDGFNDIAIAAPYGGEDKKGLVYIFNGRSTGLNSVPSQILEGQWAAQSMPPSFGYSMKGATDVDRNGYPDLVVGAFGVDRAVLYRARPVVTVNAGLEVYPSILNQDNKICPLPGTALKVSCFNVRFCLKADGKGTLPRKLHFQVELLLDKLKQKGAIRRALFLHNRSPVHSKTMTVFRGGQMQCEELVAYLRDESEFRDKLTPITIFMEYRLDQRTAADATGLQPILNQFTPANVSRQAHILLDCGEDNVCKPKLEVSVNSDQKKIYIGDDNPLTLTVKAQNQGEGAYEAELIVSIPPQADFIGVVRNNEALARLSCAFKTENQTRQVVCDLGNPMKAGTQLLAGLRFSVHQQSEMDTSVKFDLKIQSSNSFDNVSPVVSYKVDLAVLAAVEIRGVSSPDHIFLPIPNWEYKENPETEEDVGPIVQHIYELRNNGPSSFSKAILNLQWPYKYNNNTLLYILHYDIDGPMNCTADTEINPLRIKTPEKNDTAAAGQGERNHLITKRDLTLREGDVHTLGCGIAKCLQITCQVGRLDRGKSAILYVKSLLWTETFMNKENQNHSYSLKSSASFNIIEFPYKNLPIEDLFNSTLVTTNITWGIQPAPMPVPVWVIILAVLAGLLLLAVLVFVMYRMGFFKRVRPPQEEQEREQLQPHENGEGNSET

Q: How did the IC50 of doxorubicin, cell viability, murine melanoma B16-F10, integrin targeted liposome-entrapped dox 90:1 turn out when “CNTO95 Fab′ (from pepsin cleavage, reduction and reoxidation) conjugated to PEG-DSPE on the surface of liposomes” was run?
A: Its IC50 of doxorubicin, cell viability, murine melanoma B16-F10, integrin targeted liposome-entrapped dox 90:1 is > 200.

Q: And the Increase (ratio of IC50 of liposome-entrapped doxorubicin to IC50 of 90:1 integrin-targeted liposomes), murine melanoma B16-F10?
A: The Increase (ratio of IC50 of liposome-entrapped doxorubicin to IC50 of 90:1 integrin-targeted liposomes), murine melanoma B16-F10 was 1.
